Patent US5969107
Where “and” joins values, the source holds several entries; their conditions need not be identical. Equal entries are not always repeated.

Experiments:
[1] = target: murine monoclonal anti-EGFR antibody mAb 425 (ATCC HB 9629); assay: inhibition CellELISA on fixed A431 cells; reference 5A6 and 3B6
[2] = target: murine monoclonal anti-EGFR antibody mAb 425 (ATCC HB 9629); assay: competition ELISA in solution by the method of Friguet, Scatchard plot
[3] = target: Anti-EGFR Ab3 sera from Balb/c and B6D2F1 mice; assay: inhibition ELISA: anti-EGFR Ab3 sera preincubated with the Anti-Id, then on coated sEGFR

times more effective in inhibition than 5A6 and 3B6 [1] | Kd [2] | percentage of inhibition [3] | Binder
10 times | 0.3 nM | 15% and 35% | 15H8 monoclonal anti-idiotypic antibody (Ab2) (antibody, V domains shown) VH: EVQLVESGGGLVKPGGSLKLSCAASGFTFSDYYMYWFRQHPGKRLEWVATISDAGTYTYYPDSLKGRFTISRDNAKNNLYLQMSSLKSEDTAMYFCARDGAARTSSQVYYYGMDYWGQGTSVTVSS VL: DIVMTQSQKFMSTSVGDRVSITCKASQNVRTAVAWYQQKPGQSPKALIYLASNRHTGVPDRFTGSGSGTDFTLTISNVQSEDLADYFCLQHWNYPLTFGSGTKLEIKR
– | 1 nM | 100% | 5A6 monoclonal anti-idiotypic antibody (Ab2) (antibody, V domains shown) VH: DVKLVESGGGLVKLGGSLKLSCAASGFTFSNYYMSWVRQTPEKRLEFVAAINSNGGSTYYPDTVKGRFTISRDNAKNTLYLQMSSLKSEDTALYYCARHRGRDSSGYVGYAIDYWGQGTSVTVSS VL: DILLTQSPAILSVSPGERVSFSCRASQSIGTSIHWYQQRTNGSPRLLISILLSLSLGVPSRFSGSGSGTDFTLSINSVESEDIADYYCQQSNSWPYTFGGGTKLEIKR
